Measurements from patent US11147859B2, “Diffusion enhancing compounds and their use alone or with thrombolytics” (Diffusion Pharmaceuticals LLC, priority 2009, dated 2021).

Tested on: rabbit small clot embolic stroke model (RSCEM)
Assay: Rabbit small clot embolic stroke model (RSCEM), quantal dose-response analysis of behavior
Assay type: in vivo, Male New Zealand white rabbits
Conditions: for group P50: Mean±SEM
Text: Methods: This model uses rabbits and is known as RSCEM. Male New Zealand white rabbits were anesthetized using isoflurane (5% induction, 2% maintenance by facemask), the bifurcation of the right carotid artery was exposed and the external carotid was ligated just distal to the bifurcation, where a catheter was inserted into the common carotid and secured with ligatures. The incision was closed around the catheter with the distal ends left accessible outside the neck; the catheter was filled with heparinized saline and plugged with an injection cap. Rabbits were allowed to recover from anesthesia for a minimum of 2 h until they behaved normally. After that time, microdots were prepared from blood drawn from a donor rabbit and allowed to clot at 37° C., as described in detail previously. Microclots were re-suspended in PBS, then washed and allowed to settle, followed by aspiration of the supernatant and spiking of the microclots with tracer quantities of 15-μm radiolabeled microspheres. The specific activity of the particles was determined by removing an aliquot, after which appropriate volumes of PBS solution were added so that a predetermined weight of clot particles were rapidly injected through the catheter and both the syringe and catheter were flushed with 5 ml of normal saline.
Quantal Dose-Response Analysis: For behavioral analysis, a quantal dose-response data analysis technique was used as described previously. A wide range of lesion volumes is induced to generate both normal and abnormal animals with various behavioral deficits. […] Briefly, to evaluate the quantitative relationship between numbers of clots in the brain and neurological deficits (coma or death), logistic (S-shaped) curves are fitted by computer to the quantal dose-response data (see FIGS. 1 and 2).
These parameters are measures of the amount of microclots (in mg) that produce neurologic dysfunction in 50% of a group of animals (P50). The P50 values are then calculated as described previously and are presented as Mean±SEM. […] The data were analyzed using the t-test. […]

B1: tPA: Tissue plasminogen activator, a protein thrombolytic agent (clot-busting drug); Genentech lots (protein, UniProt P00750 36-562, looked up)
Tissue-type plasminogen …: SYQVICRDEKTQMIYQQHQSWLRPVLRSNRVEYCWCNSGRAQCHSVPVKSCSEPRCFNGGTCQQALYFSDFVCQCPEGFAGKCCEIDTRATCYEDQGISYRGTWSTAESGAECTNWNSSALAQKPYSGRRPDAIRLGLGNHNYCRNPDRDSKPWCYVFKAGKYSSEFCSTPACSEGNSDCYFGNGSAYRGTHSLTESGASCLPWNSMILIGKVYTAQNPSAQALGLGKHNYCRNPDGDAKPWCHVLKNRRLTWEYCDVPSCSTCGLRQYSQPQFRIKGGLFADIASHPWQAAIFAKHRRSPGERFLCGGILISSCWILSAAHCFQERFPPHHLTVILGRTYRVVPGEEEQKFEVEKYIVHKEFDDDTYDNDIALLQLKSDSSRCAQESSVVRTVCLPPADLQLPDWTECELSGYGKHEALSPFYSERLKEAHVRLYPSSRCTSQHLLNRTVTDNMLCAGDTRSGGPQANLHDACQGDSGGPLVCLNDGRMTLVGIISWGLGCGQKDVPGVYTKVTNYLDWIRDNMRP
tPA 3.3 mg/kg IV given 1 hour following embolization
  group P50: 2.48 ± 0.17 mg
tPA 3.3 mg/kg IV given 3 hours following embolization
  group P50: 1.00 ± 0.56 mg
tPA given 3 hours following embolization
  effect on behavior / P50 value (in words): ineffective
